Assay results taken from patent US20260176254A1, “INHIBITORS OF PROSTATE SPECIFIC MEMBRANE ANTIGEN AND USE THEREOF” (SHANGHAI SINOTAU BIOTECH. CO., LTD, priority 2023, published 2026).

How the values were obtained:
Design in all cases: species or system mice
[1] = Tissue biodistribution in LnCAP tumor mouse model; conditions: male, SCID, in vivo, iv, total radioactivity
Source text: (§1) LnCAP and 22RV1 CDX xenograft tumor models were generated by inoculating 5×10^6 cells/site subcutaneously in male SCID or nude mice (Vital River), respectively. Animals were housed according to IACUC guidance and had accessed to food and water ad libitium. Animals were used for biodistribution study when the tumor dimensions reached around 0.2-0.3 cm^3. […] At each tome point, animals were sacrificed and tissues were collected, weighted, and subjected to radioactivity measurements using gamma counter. Radioactivity in the tissues was presented in % ID/g (percent of injected dose per gram).

[2] = test system: LnCAP CDX xenograft tumor; assay: Tissue biodistribution in LnCAP tumor mouse model; conditions: male, SCID, in vivo, iv
Source text: as §1

[3] = test system: 22RV1 CDX xenograft tumor; assay: Tissue biodistribution in 22Rv1 tumor mouse model; conditions: male, nude, in vivo, iv
Source text: as §1

[4] = Tissue biodistribution in 22Rv1 tumor mouse model; conditions: male, nude, in vivo, iv, total radioactivity
Source text: as §1

[5] = T/NT ratio Tumor/Salivary Gland
[6] = Tissue biodistribution: Salivary Gland

O=C(O)CN1CCN(CC(=O)O)CCN(CC(=O)NC23CCC(Nc4c(N[C@@H](Cc5c6ccccc6cc6ccccc56)C(=O)NCCCC[C@H](NC(=O)N[C@@H](CNC(=O)C(=O)O)C(=O)O)C(=O)O)c(=O)c4=O)(CC2)CC3)CCN(CC(=O)O)CC1 [[^177Lu]Lu-E8, metal not drawn]
tissue uptake dose at 2 h [1]: 16.4 ± 1.14 %ID
tissue uptake dose at 6 h [1]: 4.69 ± 0.79 %ID
tissue uptake dose at 24 h [1]: 3.21 ± 2.01 %ID
tissue uptake dose at 72 h [1]: 0.99 ± 0.2 %ID
tissue uptake dose at 168 h [1]: 0.91 ± 0.03 %ID
tissue to tissue ratio ([1]; T/NT ratio Tumor/Bone): 183
tissue to tissue ratio [1, 5]: 220
tissue uptake at 2 h ([1]; Tissue biodistribution: Blood): 0.87 ± 0.21 %ID/g
tissue uptake at 6 h ([1]; Tissue biodistribution: Blood): 0.16 ± 0.04 %ID/g
tissue uptake at 24 h ([1]; Tissue biodistribution: Blood): 0.03 ± 0.01 %ID/g
tissue uptake at 72 h ([1]; Tissue biodistribution: Blood): 0.03 ± 0.01 %ID/g
tissue uptake at 168 h ([1]; Tissue biodistribution: Blood): 0.03 ± 0.01 %ID/g
tissue uptake at 2 h ([1]; Tissue biodistribution: Bone): 0.74 ± 0.16 %ID/g
tissue uptake at 6 h ([1]; Tissue biodistribution: Bone): 0.33 ± 0.11 %ID/g
tissue uptake at 24 h ([1]; Tissue biodistribution: Bone): 0.19 ± 0.01 %ID/g
tissue uptake at 72 h ([1]; Tissue biodistribution: Bone): 0.22 ± 0.02 %ID/g
tissue uptake at 168 h ([1]; Tissue biodistribution: Bone): 0.26 ± 0.04 %ID/g
tissue uptake at 2 h ([1]; Tissue biodistribution: Gland): 1.96 ± 0.74 %ID/g
tissue uptake at 6 h ([1]; Tissue biodistribution: Gland): 0.51 ± 0.1 %ID/g
tissue uptake at 24 h ([1]; Tissue biodistribution: Gland): 0.18 ± 0.04 %ID/g
tissue uptake at 72 h ([1]; Tissue biodistribution: Gland): 0.11 ± 0.01 %ID/g
tissue uptake at 168 h ([1]; Tissue biodistribution: Gland): 0.1 %ID/g
tissue uptake at 2 h ([1]; Tissue biodistribution: Heart): 1 ± 0.4 %ID/g
tissue uptake at 6 h ([1]; Tissue biodistribution: Heart): 0.26 ± 0.13 %ID/g
tissue uptake at 24 h ([1]; Tissue biodistribution: Heart): 0.11 %ID/g
tissue uptake at 72 h ([1]; Tissue biodistribution: Heart): 0.09 %ID/g
tissue uptake at 168 h ([1]; Tissue biodistribution: Heart): 0.11 %ID/g
tissue uptake at 2 h ([1]; Tissue biodistribution: Kidney): 133 ± 12.3 %ID/g
tissue uptake at 6 h ([1]; Tissue biodistribution: Kidney): 122 ± 20.9 %ID/g
tissue uptake at 24 h ([1]; Tissue biodistribution: Kidney): 15.7 ± 4.09 %ID/g
tissue uptake at 72 h ([1]; Tissue biodistribution: Kidney): 1.28 ± 0.08 %ID/g
tissue uptake at 168 h ([1]; Tissue biodistribution: Kidney): 0.69 ± 0.32 %ID/g
tissue uptake at 2 h ([1]; Tissue biodistribution: Liver): 0.58 ± 0.17 %ID/g
tissue uptake at 6 h ([1]; Tissue biodistribution: Liver): 0.33 ± 0.05 %ID/g
tissue uptake at 24 h ([1]; Tissue biodistribution: Liver): 0.23 ± 0.03 %ID/g
tissue uptake at 72 h ([1]; Tissue biodistribution: Liver): 0.18 ± 0.02 %ID/g
tissue uptake at 168 h ([1]; Tissue biodistribution: Liver): 0.15 ± 0.03 %ID/g
tissue uptake at 2 h ([1]; Tissue biodistribution: Lung): 2.97 ± 0.89 %ID/g
tissue uptake at 6 h ([1]; Tissue biodistribution: Lung): 0.75 ± 0.14 %ID/g
tissue uptake at 24 h ([1]; Tissue biodistribution: Lung): 0.18 ± 0.03 %ID/g
tissue uptake at 72 h ([1]; Tissue biodistribution: Lung): 0.08 ± 0.01 %ID/g
tissue uptake at 168 h ([1]; Tissue biodistribution: Lung): 0.1 ± 0.04 %ID/g
tissue uptake at 2 h ([1]; Tissue biodistribution: Muscle): 0.46 ± 0.09 %ID/g
tissue uptake at 6 h ([1]; Tissue biodistribution: Muscle): 0.14 ± 0.04 %ID/g
tissue uptake at 24 h ([1]; Tissue biodistribution: Muscle): 0.04 ± 0.01 %ID/g
tissue uptake at 72 h ([1]; Tissue biodistribution: Muscle): 0.03 %ID/g
tissue uptake at 168 h ([1]; Tissue biodistribution: Muscle): 0.04 ± 0.01 %ID/g
tissue uptake at 2 h ([1]; Tissue biodistribution: Spleen): 3.87 ± 1.15 %ID/g
tissue uptake at 6 h ([1]; Tissue biodistribution: Spleen): 1.05 ± 0.15 %ID/g
tissue uptake at 24 h ([1]; Tissue biodistribution: Spleen): 0.39 ± 0.14 %ID/g
tissue uptake at 72 h ([1]; Tissue biodistribution: Spleen): 0.31 ± 0.08 %ID/g
tissue uptake at 168 h ([1]; Tissue biodistribution: Spleen): 0.43 ± 0.13 %ID/g
tissue uptake at 2 h ([1]; Tissue biodistribution: Tumor): 30.8 ± 6.34 %ID/g
tissue uptake at 6 h ([1]; Tissue biodistribution: Tumor): 35.7 ± 5.05 %ID/g
tissue uptake at 24 h ([1]; Tissue biodistribution: Tumor): 37.9 ± 8.46 %ID/g
tissue uptake at 72 h ([1]; Tissue biodistribution: Tumor): 48.2 ± 10 %ID/g
tissue uptake at 168 h ([1]; Tissue biodistribution: Tumor): 44.3 ± 8.77 %ID/g
tissue to tissue ratio at 2 h ([1]; Tumor/Blood): 38.4 ± 18.7
tissue to tissue ratio at 6 h ([1]; Tumor/Blood): 237 ± 57.6
tissue to tissue ratio at 24 h ([1]; Tumor/Blood): 1150 ± 312
tissue to tissue ratio at 72 h ([1]; Tumor/Blood): 1690 ± 343
tissue to tissue ratio at 168 h ([1]; Tumor/Blood): 1630 ± 208
tissue to tissue ratio at 2 h ([1]; Tumor/Bone): 44.7 ± 20.4
tissue to tissue ratio at 6 h ([1]; Tumor/Bone): 117 ± 45.7
tissue to tissue ratio at 24 h ([1]; Tumor/Bone): 200 ± 55.6
tissue to tissue ratio at 72 h ([1]; Tumor/Bone): 223 ± 43.2
tissue to tissue ratio at 168 h ([1]; Tumor/Bone): 170 ± 19.3
tissue to tissue ratio at 2 h ([1]; Tumor/Kidney): 0.24 ± 0.07
tissue to tissue ratio at 6 h ([1]; Tumor/Kidney): 0.3 ± 0.05
tissue to tissue ratio at 24 h ([1]; Tumor/Kidney): 2.59 ± 1.05
tissue to tissue ratio at 72 h ([1]; Tumor/Kidney): 37.5 ± 6.4
tissue to tissue ratio at 168 h ([1]; Tumor/Kidney): 70.9 ± 22.8
T/NT ratio Tumor/Bone [2]: 169.77
T/NT ratio Tumor/Salivary Gland [2]: 422.38
T/NT ratio Tumor/Blood [3]: 497.77
T/NT ratio Tumor/Salivary Gland [3]: 183.55
tissue uptake dose at 2 h [4]: 8.22 ± 0.38 %ID
tissue uptake dose at 6 h [4]: 5.13 ± 0.24 %ID
tissue uptake dose at 24 h [4]: 2.13 ± 0.07 %ID
tissue uptake dose at 72 h [4]: 0.81 ± 0.01 %ID
tissue uptake dose at 168 h [4]: 1.34 ± 0.01 %ID
tissue to tissue ratio ([4]; T/NT ratio Tumor/Blood): 570
tissue to tissue ratio [4, 5]: 201
tissue uptake at 2 h ([4]; Tissue biodistribution: Blood): 0.4 ± 0.14 %ID/g
tissue uptake at 6 h ([4]; Tissue biodistribution: Blood): 0.08 ± 0.04 %ID/g
tissue uptake at 24 h ([4]; Tissue biodistribution: Blood): 0.03 %ID/g
tissue uptake at 72 h ([4]; Tissue biodistribution: Blood): 0.02 %ID/g
tissue uptake at 168 h ([4]; Tissue biodistribution: Blood): 0.02 ± 0.01 %ID/g
tissue uptake at 2 h ([4]; Tissue biodistribution: Bone): 0.47 ± 0.09 %ID/g
tissue uptake at 6 h ([4]; Tissue biodistribution: Bone): 0.26 ± 0.03 %ID/g
tissue uptake at 24 h ([4]; Tissue biodistribution: Bone): 0.26 ± 0.04 %ID/g
tissue uptake at 72 h ([4]; Tissue biodistribution: Bone): 0.34 ± 0.01 %ID/g
tissue uptake at 168 h ([4]; Tissue biodistribution: Bone): 0.43 ± 0.1 %ID/g
tissue uptake at 2 h ([4]; Tissue biodistribution: Heart): 0.57 ± 0.28 %ID/g
tissue uptake at 6 h ([4]; Tissue biodistribution: Heart): 0.1 ± 0.01 %ID/g
tissue uptake at 24 h ([4]; Tissue biodistribution: Heart): 0.07 %ID/g
tissue uptake at 72 h ([4]; Tissue biodistribution: Heart): 0.07 ± 0.01 %ID/g
tissue uptake at 168 h ([4]; Tissue biodistribution: Heart): 0.08 ± 0.01 %ID/g
tissue uptake at 2 h ([4]; Tissue biodistribution: Kidney): 136 ± 16.7 %ID/g
tissue uptake at 6 h ([4]; Tissue biodistribution: Kidney): 56.5 ± 18.9 %ID/g
tissue uptake at 24 h ([4]; Tissue biodistribution: Kidney): 5.86 ± 1.87 %ID/g
tissue uptake at 72 h ([4]; Tissue biodistribution: Kidney): 0.99 ± 0.04 %ID/g
tissue uptake at 168 h ([4]; Tissue biodistribution: Kidney): 0.26 ± 0.01 %ID/g
tissue uptake at 2 h ([4]; Tissue biodistribution: Liver): 0.34 ± 0.07 %ID/g
tissue uptake at 6 h ([4]; Tissue biodistribution: Liver): 0.19 ± 0.03 %ID/g
tissue uptake at 24 h ([4]; Tissue biodistribution: Liver): 0.18 ± 0.05 %ID/g
tissue uptake at 72 h ([4]; Tissue biodistribution: Liver): 0.22 ± 0.01 %ID/g
tissue uptake at 168 h ([4]; Tissue biodistribution: Liver): 0.23 ± 0.08 %ID/g
tissue uptake at 2 h ([4]; Tissue biodistribution: Lung): 1.14 ± 0.31 %ID/g
tissue uptake at 6 h ([4]; Tissue biodistribution: Lung): 0.32 ± 0.11 %ID/g
tissue uptake at 24 h ([4]; Tissue biodistribution: Lung): 0.12 ± 0.02 %ID/g
tissue uptake at 72 h ([4]; Tissue biodistribution: Lung): 0.09 ± 0.01 %ID/g
tissue uptake at 168 h ([4]; Tissue biodistribution: Lung): 0.07 ± 0.02 %ID/g
tissue uptake at 2 h ([4]; Tissue biodistribution: Muscle): 0.23 ± 0.03 %ID/g
tissue uptake at 6 h ([4]; Tissue biodistribution: Muscle): 0.08 ± 0.01 %ID/g
tissue uptake at 24 h ([4]; Tissue biodistribution: Muscle): 0.03 %ID/g
tissue uptake at 72 h ([4]; Tissue biodistribution: Muscle): 0.02 %ID/g
tissue uptake at 168 h ([4]; Tissue biodistribution: Muscle): 0.03 ± 0.01 %ID/g
tissue uptake at 2 h [4, 6]: 0.57 ± 0.19 %ID/g
tissue uptake at 6 h [4, 6]: 0.2 ± 0.07 %ID/g
tissue uptake at 24 h [4, 6]: 0.08 %ID/g
tissue uptake at 72 h [4, 6]: 0.09 ± 0.01 %ID/g
tissue uptake at 168 h [4, 6]: 0.06 ± 0.01 %ID/g
tissue uptake at 2 h ([4]; Tissue biodistribution: Spleen): 6.44 ± 3.19 %ID/g
tissue uptake at 6 h ([4]; Tissue biodistribution: Spleen): 0.88 ± 0.26 %ID/g
tissue uptake at 24 h ([4]; Tissue biodistribution: Spleen): 0.28 ± 0.05 %ID/g
tissue uptake at 72 h ([4]; Tissue biodistribution: Spleen): 0.35 ± 0.01 %ID/g
tissue uptake at 168 h ([4]; Tissue biodistribution: Spleen): 0.39 ± 0.11 %ID/g
tissue uptake at 2 h ([4]; Tissue biodistribution: Tumor): 19.7 ± 9.31 %ID/g
tissue uptake at 6 h ([4]; Tissue biodistribution: Tumor): 18.8 ± 1.68 %ID/g
tissue uptake at 24 h ([4]; Tissue biodistribution: Tumor): 22.7 ± 7.83 %ID/g
tissue uptake at 72 h ([4]; Tissue biodistribution: Tumor): 24.3 ± 1.92 %ID/g
tissue uptake at 168 h ([4]; Tissue biodistribution: Tumor): 11.9 ± 4.35 %ID/g
tissue to tissue ratio at 2 h ([4]; Tumor/Blood): 62.7 ± 54.4
tissue to tissue ratio at 6 h ([4]; Tumor/Blood): 277 ± 98.9
tissue to tissue ratio at 24 h ([4]; Tumor/Blood): 754 ± 166
tissue to tissue ratio at 72 h ([4]; Tumor/Blood): 1120 ± 40
tissue to tissue ratio at 168 h ([4]; Tumor/Blood): 555 ± 353
tissue to tissue ratio at 2 h ([4]; Tumor/Bone): 41.5 ± 19.5
tissue to tissue ratio at 6 h ([4]; Tumor/Bone): 73.6 ± 6.68
tissue to tissue ratio at 24 h ([4]; Tumor/Bone): 87.2 ± 16.1
tissue to tissue ratio at 72 h ([4]; Tumor/Bone): 72.1 ± 4.85
tissue to tissue ratio at 168 h ([4]; Tumor/Bone): 27.7 ± 7.2
tissue to tissue ratio at 2 h ([4]; Tumor/Kidney): 0.15 ± 0.09
tissue to tissue ratio at 6 h ([4]; Tumor/Kidney): 0.35 ± 0.11
tissue to tissue ratio at 24 h ([4]; Tumor/Kidney): 3.97 ± 0.93
tissue to tissue ratio at 72 h ([4]; Tumor/Kidney): 24.5 ± 2.46
tissue to tissue ratio at 168 h ([4]; Tumor/Kidney): 45.6 ± 16.3
